Laboratory results from patent US20230212613.

Experiments:
[1] = test system: TRAC TALEN left monomer (artificial); experiment: cell_activity; conditions: as TALEN pair with right monomer; primary human T cells, plateau by 72 h
[2] = test system: TRAC TALEN right monomer (artificial); experiment: cell_activity; conditions: as TALEN pair with left monomer; primary human T cells, plateau by 72 h

Sequence: TTCCTCCTACTCACCAT (double strand) [TRAC TALEN left half-site]
- activity [1]: 90 % indels

Sequence: GGTACAGGTAAGAGCAA (double strand) [TRAC TALEN right half-site]
- activity [2]: 90 % indels
